Results on 38 sequences are retold here after the supplement of paper PMC7877785.

± gives the uncertainty stated by the source.

A short description of this data set: self-splicing fitness, log relative to wild type (ln ratio); higher = more splicing; Tetrahymena group I intron in knt gene, E. coli kanamycin selection, DiMSum; sequences stand for … in CUCUCU…GGAGGGAAAAGUUAUCAGGCAUGCACCUGGUAGCUAGUCUUUAAACCAAUAGAUUGCAUCGGUUUAAAAGGCAAGACCGUCAAAUUGCGGGAAAGGGGUCAACAGCCGUUCAGUACCAAGUCUCAGGGGAAACUUUGAGAUGGCCUUGCAAAGGGUAUGGUAAUAAGCUGACGGACAUGGUCCUAACCACGCAGCCAAGUCCUAAGUCAACAGAUCUUCUGUUGAUAUGGAUGCAGUUCACAGACUAAAUGUCGGUCGGGGAAGAUGUAUUCUUCUCAUAAGAUAUAGUCGGACCUCUCCUUAAUGGGAGCUAGCGGAUGAAGUGAUGCAACACUGGAGCCGCUGGGAACUAAUUUGUAUGCGAAAGUAUAUUGAUUAGUUUUGGAGUACUCGUGGUCG
Summed up: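 Library with all eight P1ex-region intron nucleotides randomised, intron inside the knt kanamycin-resistance gene on pET-22b(+), in E. coli BL21(DE3). Cells grew overnight at 37°C or 30°C on LB agar with or without 25 μg/mL kanamycin (plus 100 μg/mL carbenicillin, 50 μM IPTG, 0.2% rhamnose), in six replicate transformations. Pooled colonies were amplicon-sequenced on Illumina HiSeq 2500. DiMSum fitness is the error-weighted combination of wild-type-normalised replicate fold changes, kanamycin versus none.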

Regarding ACAGAGCAAUAUUACGUUGG, the “self-splicing fitness (ln)” value is -2.73 ± 0.16 (30 °C) and -3.57 ± 0.19 (37 °C).

With GGUGAGCAAUAUUACGCAAU, the “self-splicing fitness (ln)” value is -3.03 ± 0.32 (30 °C) and -1.94 ± 0.43 (37 °C).

UAGCAGCAAUAUUACGAUUU: the “self-splicing fitness (ln)” value by setting is: (30 °C) -2.03 ± 0.11; (37 °C) -0.879 ± 0.12.

For CUGUAGCAAUAUUACGUAUU, the “self-splicing fitness (ln)” value reads like this: (30 °C) -4.45 ± 0.29; (37 °C) -3.47 ± 0.33.

For GGGAAGCAAUAUUACGUUCA, the “self-splicing fitness (ln)” value was 0.0857 ± 0.1 (30 °C) and -0.473 ± 0.14 (37 °C).

On to UCUAAGCAAUAUUACGAUAU, for which the “self-splicing fitness (ln)” value was -3.99 ± 0.4 (30 °C) and -2.61 ± 0.34 (37 °C).

For the sequence UAAAAGCAAUAUUACGCACC, the “self-splicing fitness (ln)” value runs as follows: (30 °C) -2.48 ± 0.11; (37 °C) -1.49 ± 0.12.

Take CAACAGCAAUAUUACGCACC: the “self-splicing fitness (ln)” value by setting is: (30 °C) -3.36 ± 0.34; (37 °C) -0.879 ± 0.3.

ACUCAGCAAUAUUACGCCCA: the “self-splicing fitness (ln)” value runs as follows: (30 °C) -1.42 ± 0.13; (37 °C) -0.482 ± 0.15.

Consider CCCGAGCAAUAUUACGUAGG, for which the “self-splicing fitness (ln)” value by setting is: (30 °C) -2.04 ± 0.11; (37 °C) -1.16 ± 0.14.

As to UAUCAGCAAUAUUACGACCC, the “self-splicing fitness (ln)” value was -1.87 ± 0.15 (30 °C) and -1.71 ± 0.18 (37 °C).

As to GCAUAGCAAUAUUACGCAUU, the “self-splicing fitness (ln)” value is -2.81 ± 0.26 (30 °C) and -0.0868 ± 0.17 (37 °C).

As for UAGGAGCAAUAUUACGUGAA, the “self-splicing fitness (ln)” value is -1.66 ± 0.34 (30 °C) and -1.93 ± 0.34 (37 °C).

For GUGAAGCAAUAUUACGCGGC, the “self-splicing fitness (ln)” value reads like this: (30 °C) -2.03 ± 0.33; (37 °C) -1.24 ± 0.4.

On to AAUGAGCAAUAUUACGUAGG, for which the “self-splicing fitness (ln)” value by setting is: (30 °C) -3.19 ± 0.15; (37 °C) -2.6 ± 0.24.

UUUAAGCAAUAUUACGCGAC: the “self-splicing fitness (ln)” value by setting is: (30 °C) -2.4 ± 0.18; (37 °C) -2.75 ± 0.22.

As for CCGGAGCAAUAUUACGUCUA, for the setting “37 °C”, the “self-splicing fitness (ln)” value was -1.85 ± 0.33.

Turning to GUAAAGCAAUAUUACGCAGU, the “self-splicing fitness (ln)” value reads like this: (30 °C) -2.99 ± 0.18; (37 °C) -1.06 ± 0.16.

On to UUUCAGCAAUAUUACGAGAC, for which the “self-splicing fitness (ln)” value (30 °C) was -2.68 ± 0.36 and the “self-splicing fitness (ln)” value (37 °C) was -3.57 ± 0.46.

For UCAAAGCAAUAUUACGCUAU, the “self-splicing fitness (ln)” value (30 °C) was -3.44 ± 0.22 and the “self-splicing fitness (ln)” value (37 °C) is -1.41 ± 0.18.

Regarding AAGCAGCAAUAUUACGAUCC, the “self-splicing fitness (ln)” value runs as follows: (30 °C) -1.73 ± 0.24; (37 °C) 0.0481 ± 0.24.

Consider UAGGAGCAAUAUUACGGUCA, for which the “self-splicing fitness (ln)” value is -2.65 ± 0.47 (30 °C) and -2.19 ± 0.26 (37 °C).

On to GUGUAGCAAUAUUACGAACA, for which the “self-splicing fitness (ln)” value is -1.66 ± 0.16 (30 °C) and -0.829 ± 0.12 (37 °C).

Take ACCCAGCAAUAUUACGAAGA: the “self-splicing fitness (ln)” value is, setting by setting: (30 °C) -1.74 ± 0.12; (37 °C) -1.36 ± 0.15.

CUAUAGCAAUAUUACGGAUG: the “self-splicing fitness (ln)” value is, setting by setting: (30 °C) -0.942 ± 0.11; (37 °C) -0.343 ± 0.11.

AGCUAGCAAUAUUACGGCCG: the “self-splicing fitness (ln)” value was -0.198 ± 0.15 (30 °C) and 0.841 ± 0.19 (37 °C).

In the case of CUGGAGCAAUAUUACGCCCA, the “self-splicing fitness (ln)” value (37 °C) is -2.1 ± 0.5.

For the sequence UUCAAGCAAUAUUACGUCGA, the “self-splicing fitness (ln)” value (30 °C) is -0.383 ± 0.078 and the “self-splicing fitness (ln)” value (37 °C) is -0.0975 ± 0.087.

Turning to GUCCAGCAAUAUUACGUUGA, the “self-splicing fitness (ln)” value is, setting by setting: (30 °C) -0.801 ± 0.057; (37 °C) -0.239 ± 0.071.

Consider CCUCAGCAAUAUUACGAGAC, for which the “self-splicing fitness (ln)” value was -3.31 ± 0.32 (30 °C) and -2.88 ± 0.35 (37 °C).

Regarding GACGAGCAAUAUUACGCUCA, the “self-splicing fitness (ln)” value runs as follows: (30 °C) -1.28 ± 0.15; (37 °C) -0.493 ± 0.13.

Turning to CUACAGCAAUAUUACGUAAU, the “self-splicing fitness (ln)” value by setting is: (30 °C) -3.8 ± 0.19; (37 °C) -2.84 ± 0.18.

As for GGGUAGCAAUAUUACGCUGG, the “self-splicing fitness (ln)” value by setting is: (30 °C) -2.61 ± 0.35; (37 °C) -2.45 ± 0.42.

As to AAGUAGCAAUAUUACGUGAA, the “self-splicing fitness (ln)” value was -2.36 ± 0.12 (30 °C) and -1.78 ± 0.13 (37 °C).

For GGCUAGCAAUAUUACGAGGC, the “self-splicing fitness (ln)” value (30 °C) is -2.31 ± 0.24.

For UGAUAGCAAUAUUACGUCGC, the “self-splicing fitness (ln)” value (37 °C) was -2.13 ± 0.39.

Consider AUAUAGCAAUAUUACGCAAA, for which the “self-splicing fitness (ln)” value by setting is: (30 °C) -1.94 ± 0.24; (37 °C) -1.69 ± 0.24.

As for UACCAGCAAUAUUACGAAGC, the “self-splicing fitness (ln)” value reads like this: (30 °C) -3.64 ± 0.25; (37 °C) -2.17 ± 0.18.
